The values below come from article PMC11098746 (2024).

Test in all cases: AVEXIS screen signal:noise (double-corrected)
For one experiment, the target named is T1, ADP325.
T1 chain: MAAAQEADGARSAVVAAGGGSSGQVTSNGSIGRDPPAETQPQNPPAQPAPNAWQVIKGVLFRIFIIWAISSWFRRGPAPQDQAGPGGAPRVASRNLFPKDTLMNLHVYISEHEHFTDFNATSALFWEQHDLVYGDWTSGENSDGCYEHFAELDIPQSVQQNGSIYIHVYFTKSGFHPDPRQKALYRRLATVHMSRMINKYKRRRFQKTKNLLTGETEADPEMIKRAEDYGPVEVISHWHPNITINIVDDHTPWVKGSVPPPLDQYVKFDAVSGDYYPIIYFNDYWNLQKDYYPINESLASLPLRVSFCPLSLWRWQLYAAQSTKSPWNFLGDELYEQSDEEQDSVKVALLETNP

A further experiment has as its target T2, ADP353.
T2 chain: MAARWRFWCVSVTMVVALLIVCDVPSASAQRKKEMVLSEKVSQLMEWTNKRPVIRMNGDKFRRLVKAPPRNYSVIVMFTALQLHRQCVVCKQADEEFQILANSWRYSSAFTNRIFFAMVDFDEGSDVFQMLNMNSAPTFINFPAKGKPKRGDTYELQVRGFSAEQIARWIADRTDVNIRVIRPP

The next experiment deals with T3, ADP103.
T3 chain: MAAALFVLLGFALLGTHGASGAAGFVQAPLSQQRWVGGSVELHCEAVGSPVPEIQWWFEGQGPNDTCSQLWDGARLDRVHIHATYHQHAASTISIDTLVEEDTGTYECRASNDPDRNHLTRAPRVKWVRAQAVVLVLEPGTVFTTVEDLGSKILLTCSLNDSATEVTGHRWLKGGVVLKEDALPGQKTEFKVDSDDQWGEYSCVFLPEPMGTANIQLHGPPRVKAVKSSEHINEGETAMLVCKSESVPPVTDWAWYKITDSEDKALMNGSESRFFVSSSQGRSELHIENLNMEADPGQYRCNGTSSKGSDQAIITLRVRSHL

The target in the next experiment is ADP110.
The next experiment deals with ADP132.
The next experiment deals with T4, ADP285.
T4 chain: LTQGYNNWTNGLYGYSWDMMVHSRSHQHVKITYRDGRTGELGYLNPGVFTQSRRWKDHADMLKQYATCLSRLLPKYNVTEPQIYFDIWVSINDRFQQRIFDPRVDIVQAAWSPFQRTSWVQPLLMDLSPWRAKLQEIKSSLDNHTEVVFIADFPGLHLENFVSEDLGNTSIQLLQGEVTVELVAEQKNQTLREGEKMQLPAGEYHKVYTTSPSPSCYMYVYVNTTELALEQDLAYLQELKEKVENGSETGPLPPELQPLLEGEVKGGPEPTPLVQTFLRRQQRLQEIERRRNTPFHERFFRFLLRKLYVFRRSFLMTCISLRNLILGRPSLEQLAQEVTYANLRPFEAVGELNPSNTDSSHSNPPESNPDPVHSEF

A further experiment concerns the target T5, ADP101.
T5 chain: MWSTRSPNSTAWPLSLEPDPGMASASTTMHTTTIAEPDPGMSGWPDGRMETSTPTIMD

A further experiment has as its target T6, ADP360.
T6 chain: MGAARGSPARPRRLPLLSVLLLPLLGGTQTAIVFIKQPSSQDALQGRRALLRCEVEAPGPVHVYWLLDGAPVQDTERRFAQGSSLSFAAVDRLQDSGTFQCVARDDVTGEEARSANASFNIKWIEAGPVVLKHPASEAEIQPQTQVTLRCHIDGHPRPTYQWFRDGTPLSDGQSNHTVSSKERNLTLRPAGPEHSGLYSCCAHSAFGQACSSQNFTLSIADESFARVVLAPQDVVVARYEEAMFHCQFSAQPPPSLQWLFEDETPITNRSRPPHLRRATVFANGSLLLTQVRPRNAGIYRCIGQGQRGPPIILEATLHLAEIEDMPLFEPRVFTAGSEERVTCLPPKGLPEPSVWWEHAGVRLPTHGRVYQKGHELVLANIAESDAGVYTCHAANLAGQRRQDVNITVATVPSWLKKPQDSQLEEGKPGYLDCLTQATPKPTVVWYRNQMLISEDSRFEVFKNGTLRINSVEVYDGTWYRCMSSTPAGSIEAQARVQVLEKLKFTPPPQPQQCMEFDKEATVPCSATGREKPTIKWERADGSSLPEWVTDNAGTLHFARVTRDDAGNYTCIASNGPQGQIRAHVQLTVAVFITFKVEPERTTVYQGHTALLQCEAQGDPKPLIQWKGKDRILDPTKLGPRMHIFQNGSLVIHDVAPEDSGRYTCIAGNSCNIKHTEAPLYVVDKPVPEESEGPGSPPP

The next experiment deals with T7, ADP141.
T7 chain: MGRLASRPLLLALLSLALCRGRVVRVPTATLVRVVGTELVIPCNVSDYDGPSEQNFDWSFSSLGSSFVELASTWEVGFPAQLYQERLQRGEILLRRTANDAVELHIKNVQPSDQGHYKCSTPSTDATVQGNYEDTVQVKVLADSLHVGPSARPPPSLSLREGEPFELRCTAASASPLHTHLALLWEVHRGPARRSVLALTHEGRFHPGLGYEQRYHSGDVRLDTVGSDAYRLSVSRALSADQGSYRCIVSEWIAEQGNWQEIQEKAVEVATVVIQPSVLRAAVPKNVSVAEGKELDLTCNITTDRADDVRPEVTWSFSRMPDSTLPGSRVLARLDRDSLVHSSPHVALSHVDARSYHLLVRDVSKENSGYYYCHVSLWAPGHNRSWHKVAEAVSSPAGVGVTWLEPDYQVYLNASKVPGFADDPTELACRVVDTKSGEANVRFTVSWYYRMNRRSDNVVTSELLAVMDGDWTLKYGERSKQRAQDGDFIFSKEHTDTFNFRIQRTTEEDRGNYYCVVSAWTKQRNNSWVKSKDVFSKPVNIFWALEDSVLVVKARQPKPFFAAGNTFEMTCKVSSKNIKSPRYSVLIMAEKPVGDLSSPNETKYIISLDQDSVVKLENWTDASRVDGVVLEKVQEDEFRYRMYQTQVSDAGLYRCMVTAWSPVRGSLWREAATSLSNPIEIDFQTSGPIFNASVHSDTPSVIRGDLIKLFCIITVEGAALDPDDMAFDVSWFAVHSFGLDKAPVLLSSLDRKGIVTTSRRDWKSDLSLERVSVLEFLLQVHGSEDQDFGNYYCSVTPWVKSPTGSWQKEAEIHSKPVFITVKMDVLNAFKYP

For another experiment, the target named is T8, ADP296.
T8 chain: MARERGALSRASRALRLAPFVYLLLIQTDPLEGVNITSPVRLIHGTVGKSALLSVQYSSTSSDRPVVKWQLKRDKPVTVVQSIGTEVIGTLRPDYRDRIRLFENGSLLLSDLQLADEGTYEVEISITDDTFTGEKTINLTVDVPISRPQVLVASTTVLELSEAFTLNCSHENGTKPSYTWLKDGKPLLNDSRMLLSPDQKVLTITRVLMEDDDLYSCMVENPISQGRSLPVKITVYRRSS

Another experiment concerns the target T9, ADP104.
T9 chain: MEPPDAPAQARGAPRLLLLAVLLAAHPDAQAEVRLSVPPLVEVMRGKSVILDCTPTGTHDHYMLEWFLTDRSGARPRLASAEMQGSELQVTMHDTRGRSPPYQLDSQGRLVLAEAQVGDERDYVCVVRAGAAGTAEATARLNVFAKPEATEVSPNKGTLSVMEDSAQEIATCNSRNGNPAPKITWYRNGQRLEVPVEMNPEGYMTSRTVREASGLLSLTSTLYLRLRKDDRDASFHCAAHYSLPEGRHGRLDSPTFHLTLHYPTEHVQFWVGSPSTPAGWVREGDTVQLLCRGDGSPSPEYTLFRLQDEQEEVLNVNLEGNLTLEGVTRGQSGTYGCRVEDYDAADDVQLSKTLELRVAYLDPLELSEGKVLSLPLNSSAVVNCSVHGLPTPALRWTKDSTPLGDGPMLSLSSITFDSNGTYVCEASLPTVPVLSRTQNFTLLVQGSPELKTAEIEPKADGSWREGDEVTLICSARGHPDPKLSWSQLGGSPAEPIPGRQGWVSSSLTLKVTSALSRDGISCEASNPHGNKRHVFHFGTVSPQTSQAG

B1: ADP222 (protein)
chain: NVVAPKSAEAVHTLTAKLDTENKAHQKYIDIINGVFSENMENFVFSITTSNGFTCSINKLDVIFDNKVTGMQKVFSDENVQYIKEASLEFKNNLLEYMKGVMPSENDFSNVRKEFQKVCVKYFSELRRKFFQIYRDPNNKNQNEDNVDNHMNIEEISQEFFSGFNPFGTMKIRKEQNPDLSQKDSLILNENNNDALTSADQKNNNMVPMENRAFSYSQQSSHVVSFDGHDEHVEQQEQHSGDNTQEDKDQLMDLPFNKDKVFSTFLKNVALLIEGNCAEAQQQAQEQTQEQTEEQEEEQNEKEIESDKQVQKDGEQKENDVQKKQKANAFTIQFSSSLSRKHISTTCNAASGNVFLRKGNKPFEHFNSPNFENMMKGVFGIIQNPFENGQPTFPFFKNINSISGIGNVDIPKNFMNDFLNNGNDQNTPISS
modifications: bait human Fc-tagged dimer; N-glycosylation sequons mutated in Plasmodium baits
Molecule B1 registered a binding score with ADP325 of 6.14.

B2: ADP198 (protein)
chain: ENVDTFKCNYAKKKKNGHHIKRHITNDEEKKKEYSFLMLGKENEEENKENKENNQNVNKDNNDNNNNEKKNEEQNHNNEKKQEEVINNNNNNVENKKEEENHNNDKKTDEQNHVNEKKQEGENNKHKKDDTIPPEKKINKENLLEYGTHDKEGHFIPSYKTLTDEILSTNNAMEKASSFLKIACSHVMKLIEFIPESKLSSQYIKVDNKNIYLKDIAVECQNIYFNLEKFSMTLIVFNSKINKFIYSQEK
modifications: bait human Fc-tagged dimer; N-glycosylation sequons mutated in Plasmodium baits
Take B2: the binding score with ADP353 was found to be 21.4; with ADP103 it was 5.51.

B3: ADP190 (protein)
chain: IQLHSVNYAPLNYIEIGDTLSNKVGELWHSHLNSFIDIVSTKVVNKLEDDLSNGNNLEKFMILLEDDADIFDASAYEGKNLALIQTEFIRKLKDKFKNSKFGQKLKKLGSKAKEKLLSLYQKHKGKLRHFFSILLKSLVIPIAVQFIRKNLNKWKQRTLEATQKLDEQSKNIAQPIINRLYNSFEDKIEEYSQENKINVEDELNALGQLDKDKQDIQKLEEQEKALLQ
modifications: bait human Fc-tagged dimer; N-glycosylation sequons mutated in Plasmodium baits
With B3, the results for the binding score with ADP110 and in the experiment with ADP132 were 11.4 and 11.3, respectively.

B4: ADP70 (protein)
chain: FENAIKKTKNQENNLALLPIKSTEEEKDDIKNGKDIKKEIDNDKENIKTNNAKDHSTYIKSYLNTNVNDGLKYLFIPSHNSFIKKYSVFNQINDGMLLNEKNDVKNNEDYKNVDYKNVNFLQYHFKELSNYNIANSIDILQEKEGHLDFVIIPHYTFLDYYKHLSYNSIYHKSSTYGKCIAVDAFIKKINEAYDKVKSKCNDIKNDLIATIKKLEHPYDINNKNDDSYRYDISEEIDDKSEETDDETEEVEDSIQDTDSNHAPSNKKKNDLMNRAFKKMMDEYNTKKKKLIKCIKNHENDFNKICMDMKNYGTNLFEQLSCYNNNFCNTNGIRYHYDEYIHKLILSVKSKNLNKDLSDMTNILQQSELLLTNLNKKMGSYIYIDTIKFIHKEMKHIFNRIEYHTKIINDKTKIIQDKIKLNIWRTFQKDELLKRILDMSNEYSLFITSDHLRQMLYNTFYSKEKHLNNIFHHLIYVLQMKFNDVPIKMEYFQTYKKNKPLTQ
modifications: bait human Fc-tagged dimer; N-glycosylation sequons mutated in Plasmodium baits
With B4, the binding score in the experiment with ADP285 worked out at 7.62; with ADP103, 4530; in the experiment with ADP101 it was 6.6; with ADP360, 6.35.

B5: ADP233 (protein)
chain: SPGNDNNNVNNDGVVHVLSKNIDVKNLQGTFYEIATNAADKIFPGLACRCTKYEFSGLKRDGNLGYVLINFACARNFIFGEKKSEMTFKLILNKPLDENTATVEEFNAAIYLVQGNQQILLNGNINIIYAELNEQNEFEHLILGGQKSIEPMIIMSKYRTVLLDTYNKLINSLYLAGYEPSLLTWPFIIQTDQTFCD
modifications: bait human Fc-tagged dimer; N-glycosylation sequons mutated in Plasmodium baits
For B5, the binding score with ADP141 came to 5.97; in the experiment with ADP296, 6.11; in the experiment with ADP104, 7.73.
